# In patent publication US20050255113A1, “Methods and compositions for inhibiting polypeptide accumulation associated with neurological disorders” (New York State Department of Health and Abgenix, Inc., priority 1999, published 2005):
# Legend:
# [1] = system: model huntingtin polypeptide (HD-25Q-GFP, pHD-104Q-GFP, HD-Q104-myc, GFP-HD-Q104); assay: Intrabody retargeting of model huntingtin polypeptide in co-transfected COS-7 cells (immunofluorescence); type: cell-based
# Method: COS 7 cells were grown on cover glass in 6-well plates (10^5 cells/well) and co-transfected at a ratio of 3:1 (sFv to target) with plasmids containing either N-HD-C4 sFv or a negative control sFv (containing an HA tag and SV40 nuclear localization sequence (NLS)) and plasmids containing GFP-targeted fusion proteins using 5 μl SuperFect transfection reagent (QIAGEN). At 24 hours post-transfection, cells were prepared for immunofluorescence as follows: cells were fixed with 4% paraformaldehyde and permeabilized with 0.2% triton-X100. To prevent non-specific binding of secondary antibodies, cells were blocked with 10% normal goat serum in 3% BSA.
# The assay is designed such that both the target antigen, i.e., the model huntingtin polypeptide, and the intrabody can be visualized. In particular, the huntingtin polypeptide is visualized by detecting fluorescence emitted by the GFP domain of the huntingtin-GFP fusion polypeptide and the intrabodies tested are visualized using a rhodamine-conjugated antibody that can specifically bind to the intrabody.
# The model HD target polypeptide was fused to c-myc (EQKLISEEDL (SEQ ID NO: 45)) epitope tag (HD-Q104-myc). The intrabodies sequences were fused to a HA tag and a SV40 nuclear localization signal (sFv-HA-NLS), so that bound antigens should be retargeted to the cell nuclei. At 48 hours post-transfection, cells were fixed and permeabilized. The HD-Q104-myc proteins were detectable using anti-myc epitope antibodies (i.e., MAb 9E10 IgG), followed by FITC-labeled goat anti-mouse IgG. The sFv-HA-NLS intrabodies were detected by polyclonal rabbit anti-HA IgG followed by rhodamine-conjugated goat anti-rabbit IgG antibodies.
# FIGS. 13A-F show stably transfected COS-7 cells expressing α-Nt-HD-C4 sFv-HA-NLS which were further transfected with plasmids encoding either the model altered huntingtin polypeptide with 104 glutamine repeats (FIGS. 13B, D, F) or the model altered DRPLA polypeptide with 81 glutamine repeats (FIGS. 13A, C, E). Both model altered polypeptides were fused to GFP (GFP-HD-Q104 and GFP-DRPLA-Q81, respectively).
# GST-HD-25Q, GST-HD-42Q = assay: Affinity purification of sFv with GST-fusion antigens (glutathione-Sepharose, SDS-PAGE, immunoblot); type: binding; conditions: 3 μg sFv with 4 μg antigen, 1 hr room temperature; Coomassie and immunoblot
# Method: About 3 ug of N-HD-C4 sFv was mixed with 4 ug of either GST-DRPLA-Q35 or GST-HD-Q25 or GST-HD-Q42 in PBS (200 μl final volume) and rocked for 1 h at RT. Twenty microliters of glutathione Sepharose 4B beads (50% slurry, pre-washed with PBS) was added and incubated for another 30 min at RT to capture the sFv/GST fusion protein complexes. The beads were harvested by centrifugation at 12,000×g for 10 sec and washed thrice with 1 ml PBS. The complexes were eluted with 10 μl of 50 mM Tris pH 8.0 containing 10 mM reduced glutathione for 10 min at RT. Tubes were then centrifuged at 12,000×g for 1 min and the supernatants containing the soluble complexes were transferred to new tubes, mixed with an equal volume of 2× SDS-sample buffer and heated at 95° C. before being loaded on SDS-PAGE.
# About 3 μg of each clone were incubated in solution for 1 hour at room temperature with 4 ug of either GST-DRPLA-Q35, GST-HD-Q25 or GST-HD-Q42. Then, a 10 μl bed volume of glutathione-Sepharose 4B (Pharmacia) was added to each tube to precipitate the GST-fusion protein/sFv complexes. After 30 min incubation, tubes were centrifuged and the pellets washed 3 times with 1 ml PBS. The complexes were eluted from glutathione-Sepharose beads by addition of 10 mM reduced glutathione to the pellets.
# After centrifugation, supernatants containing the eluted complexes were transferred to new tubes and mixed with an equal volume of 2× SDS-loading buffer. The samples were boiled and the proteins separated on a 12% SDS-PAGE. Protein bands were visualized by Coomassie blue staining, and/or transferred to nitrocellulose membranes in order to detect the sFv molecules by immunoblot.
# The binding specificities of the selected sFv clones were tested by affinity binding to a full range of antigens, as follows: (a) using sample numbers that correspond to the experimental results in FIGS. 9 and 10, about 3 μg of α-Nt-HD-C4 sFv clone 1 (lanes 2-4) or α-Nt-HD-C4 sFv clone 2 (lanes 5-7) were mixed with 4 μg of the following antigens and incubated in solution for 1 hr at room temperature (lanes 2 and 5) GST-DRPLA-35Q, (lanes 3 and 6) GST-HD-25Q, (4 and 7) GST-HD-42Q; (b) a 10 μl bed volume of glutathione-Sepharose 4B (Pharmacia) was added to each tube to bind all GST-containing protein complexes; the beads were washed with 10 mM glutathione solution, which eluted the GST-antigen or the sFv-antigen complex, and these eluates were analyzed by SDS-PAGE. Protein bands were visualized by Coomassie blue staining (FIG. 9) and were also transferred to nitrocellulose membranes in order to detect the sFv molecules by immunoblot blot (FIG. 10).
# cerebellar slices = assay: Aggregation of model huntingtin-GFP polypeptides in biolistically transfected cerebellar slices; type: cell-based, mice (P12 Balb); conditions: examined after 24 h
# Method: Organotypic slice cultures are made from P12-P14 cerebellum, cerebral cortex, or striatum, using published methods with minor modifications (1)(14). The brain is dissected from a mouse and placed in a beaker of high magnesium (1.8 mM CaCl2 and 2.4 mM MgCl2) HEPES-buffered Hanks' saline (HBHS) at 4° C. The brain is then blocked and mounted next to a 2% agarose block on a 1-cm^2 piece of Plexiglas (0.3 cm thick) with SuperGlue®. Dental wax mounts the plastic onto the slicing-chamber tissue-holder. After being mounted, the tissue is placed in the slicing chamber of the vibratome. The bath of the vibratome contains cooled high magnesium HBHS at 4° C. Temperature is maintained by a peltier thermoelectric refrigeration system attached to the slicing chamber (FHC, Brunswick, Me.). Three or 400 μm thick sections were sliced from the tissues of interest. As each new slice was made it was placed into growth medium at 4° C. until the collection of slices was complete. Slices from one preparation were then placed in an enclosed filter unit, and incubated at 37° C. for 1 hour in high magnesium artificial cerebral spinal fluid ([…], 0.33 mM KCl, 0.12 mM NaH2PO4, 2.5 mM NaHCO3, 1 mM dextrose, 2.4 mM MgCl2, 1.8 mM CaCl2; all items from Sigma®, St. Louis, Mo.). Solutions were constantly gassed with 95% O2 and 5% CO2. […]
# COS-7 cells = assay: Aggregation and cell death of model huntingtin-GFP fusion polypeptides expressed in COS-7 cells; type: cell-based, Primate
# Text: In order to determine the effects of intracellular polypeptide aggregation, cells expressing a polypeptide representing normal huntingtin polypeptide as compared to cells expressing a huntingtin polypeptide representing the polypeptide found in patients with Huntington's disease was examined. Primate cells (COS-7) were transfected with plasmid constructs encoding a model huntingtin-GFP fusion polypeptide representing the normal polypeptide or an altered huntingtin polypeptide associated with disease having 47, 72, or 104 glutamine residues. Within 24 h of transfection, a large number of the cells express the huntingtin polypeptide as indicated by the GFP tag fused to each of the test proteins. Observations were recorded at three time points (see Table 4).
# Using fluorescence microscopy, it was observed that cells that express the huntingtin-GFP polypeptide with 104 glutamine residues (FIG. 3D) harbor large, brilliant aggregates. […] In cells expressing a model huntingtin polypeptide with fewer glutamine residues (72Q), extremely bright and more variable aggregates are seen, with slightly less cell death. And in cells expressing a model huntingtin polypeptide with 47 glutamine residues, the fluorescence intensity was less and more diffuse.
molecule,measurement,setting,value
α-Nt-HD-C4 sFv-NLS: huntingtin-specific C4 sFv intrabody fused to HA tag and SV40 nuclear localization signal (protein) scFv: QVQLQESGGGLVQPGGSLRLSCAASGFTFSSYSMSWVRQAPGKGLEWVAVISYDGSNKYYADSVKGRFTISRDNSKNTLYLQMNSLRAEDTAVYYCARDRYFDLWGRGTLVTVSSGGGGSGGGGSGGGGSQSALTQPASVSGSPGQSITISCTGTSSDIGAYNYVSWYQQYPGKAPKLLIYDVSNRPSGISNRFSGSKSGDTASLTISGLQAEDEADYYCSSFANSGPLFGGGTKVTVLYPYDVPDYATPPLLLRLV,relocation of HD-Q104-myc,"[1]; COS-7, 48 hours post-transfection",able to relocate the model altered huntingtin polypeptide HD-Q104-myc from the cytosol to the nucleus
same,retargeting of HD-25Q-GFP,[1]; COS-7 co-transfection,can retarget the distribution of huntingtin polypeptide to the nucleus
same,colocalization with GFP-HD-Q104 in cell nuclei,[1]; COS-7 stably expressing the intrabody,clearly shows specificity to GFP-HD-Q104
"α-Nt-HD-C4 sFv clone 1: subclone 1 of α-Nt-HD-C4 sFv expressed in bacteria and purified on Ni-NTA (protein, left off: small tags and cut ends, subclone 1 of α-Nt-HD-C4 sFv expressed in bacteria and purified on Ni-NTA) scFv: QVQLQESGGGLVQPGGSLRLSCAASGFTFSSYSMSWVRQAPGKGLEWVAVISYDGSNKYYADSVKGRFTISRDNSKNTLYLQMNSLRAEDTAVYYCARDRYFDLWGRGTLVTVSSGGGGSGGGGSGGGGSQSALTQPASVSGSPGQSITISCTGTSSDIGAYNYVSWYQQYPGKAPKLLIYDVSNRPSGISNRFSGSKSGDTASLTISGLQAEDEADYYCSSFANSGPLFGGGTKVTVL",sFv co-purified with antigens containing the Nt-HD sequence,"GST-HD-25Q, GST-HD-42Q",binding only the HD flanking peptide
"α-Nt-HD-C4 sFv clone 2: subclone 2 of α-Nt-HD-C4 sFv expressed in bacteria and purified on Ni-NTA (protein, left off: small tags and cut ends, subclone 2 of α-Nt-HD-C4 sFv expressed in bacteria and purified on Ni-NTA) scFv: QVQLQESGGGLVQPGGSLRLSCAASGFTFSSYSMSWVRQAPGKGLEWVAVISYDGSNKYYADSVKGRFTISRDNSKNTLYLQMNSLRAEDTAVYYCARDRYFDLWGRGTLVTVSSGGGGSGGGGSGGGGSQSALTQPASVSGSPGQSITISCTGTSSDIGAYNYVSWYQQYPGKAPKLLIYDVSNRPSGISNRFSGSKSGDTASLTISGLQAEDEADYYCSSFANSGPLFGGGTKVTVL",sFv co-purified with antigens containing the Nt-HD sequence,"GST-HD-25Q, GST-HD-42Q",binding only the HD flanking peptide
72Q: model huntingtin-GFP fusion polypeptide with 72 glutamine residues; SEQ ID NO: 13 (protein) MATLEKLMKAFESLKSFQQQQQQQQQQQQQQQQQQQQQQQQQQQQQQQQQQQQQQQQQQQQQQQQQQQQQQQQQQQQQQQQQQQQQQQQ,aggregates in brain tissue,cerebellar slices,"smaller, more discrete aggregates"
47Q: model huntingtin-GFP fusion polypeptide with 47 glutamine residues; SEQ ID NO: 12 (protein) MATLEKLMKAFESLKSFQQQQQQQQQQQQQQQQQQQQQQQQQQQQQQQQQQQQQQQQQQQQQQQ,fluorescence pattern / aggregation / cell death,COS-7 cells; 24 h after transfection,"diffuse, bright"
104Q: model huntingtin-GFP fusion polypeptide with 104 glutamine residues; SEQ ID NO: 14 (protein) MATLEKLMKAFESLKSFQQQQQQQQQQQQQQQQQQQQQQQQQQQQQQQQQQQQQQQQQQQQQQQQQQQQQQQQQQQQQQQQQQQQQQQQQQQQQQQQQQQQQQQQQQQQQQQQQQQQQQQQ,aggregates in brain tissue,cerebellar slices,large aggregates
same,fluorescence pattern / aggregation / cell death,COS-7 cells; 72 h after transfection,substantial death
